Key:
[1] = test system: Akt-Ser473 phosphorylation; assay: Western blot of Akt-Ser473 phosphorylation in TWEAK-treated glioma cells; type: cell-based, Human
Procedure: (§1) Human astrocytoma cell lines T98G, U87, U118, SNB19 (American Type Culture Collection) and SF767 (University of California at San Francisco) were maintained in Dulbecco's modified Eagle's medium (DMEM)+10% heat inactivated fetal bovine serum (FBS) in a 37° C., 5% CO2 atmosphere. In all assays treated with TWEAK, cells were cultured in reduced serum (0.5% FBS) for 16 h prior to stimulation with recombinant TWEAK at 100 ng/ml in DMEM+0.1% BSA for the indicated times.
(§2) Immunoblotting and protein determination experiments were performed as described previously (See Reference 11). In some experiments, TWEAK (100 ng/ml) was preincubated with 2.5 μg/ml soluble Fn14-Fc decoy receptor or control Fc protein at 37° C. for 15 min before adding it to cells (See Reference 26). Also, in some cases, cells were pretreated with the PI3K inhibitor LY294002 (10 μM) for 10 min prior to TWEAK addition. For immunoprecipitation, cells were lysed on ice for 10 min in a buffer containing 10 mM Tris-HCl, pH 7.4, 0.5% Nonidet P-40, 150 mM NaCl, 1 mM phenylmethylsulfonyl fluoride, 1 mM EDTA, 2 mM sodium vanadate, 10 μg/ml aprotinin, and 10 μg/ml leupeptin (Sigma). […] Samples were then resuspended in 2×SDS sample buffer and boiled in the presence of 2-mercaptoethanol (Sigma), separated by SDS-PAGE, transferred to nitrocellulose for 1 h at 4° C., and proteins were detected as described previously (See Reference 27). […]
Referring now to FIG. 1, T98G and SF767 glioma cells were treated with TWEAK and then harvested at the indicated times. Protein lysates were analyzed by Western blotting using antibodies to Akt Ser-473, total Akt, and α-tubulin. […] Total cell lysates were collected after 10 min of TWEAK treatment and analyzed for phosphorylated Akt-473, total Akt, and α-tubulin. […] Cells were treated with TWEAK for 10 minutes and protein lysates were analyzed for phosphorylated Akt-473, total Akt, Rac1 and α-tubulin. […]

Akt1 = assay: Immunoprecipitation with isoform-specific antibody, immunoblot for phospho Akt-473; type: cell-based, Human; details: T98G cells; TWEAK 10 min
Procedure: as §2
(§3) The protein expression of Akt1 and Akt2 across five different glioma cell lines was assessed. […]
(§4) Akt1 and Akt2 are expressed in glioma cell lines and are phosphorylated in TWEAK stimulated cells. Referring now to FIG. 10: T98G, SNB19, SF767, U87, and U118 cell lysates were analyzed for endogenous levels of Akt1 and Akt2 by Western blotting. To monitor gel loading, α-tubulin protein levels were also analyzed. […]

Akt2 = assay: as above; type: cell-based, Human; details: T98G cells; TWEAK 10 min
Procedure: as §2, §3, §4

[2] = test system: T98G and SF767 glioma cells; assay: Apoptotic assay (nuclear morphology of DAPI stained cells); type: cell-based, Human
Procedure: as §1
Apoptotic cells were evaluated by nuclear morphology of DAPI stained cells as described previously (See Reference 11). Briefly, cells with condensed, fragmented chromatin were manually scored as apoptotic cells. At least five fields (total of 1000 cells) were evaluated, and data reported as apoptotic cells/total cells×100. Verification of apoptotic cells was conducted by co-immunofluorescence staining using a monoclonal antibody against activated cleaved caspase 3. At least 1000 cells per treatment were evaluated for condensed chromatin and activated caspase 3 (See Reference 11).
TWEAK stimulation of glioma cell survival depends on Akt2 function. SiRNA specific for Akt1 (FIG. 12) and Akt2 (FIG. 13) suppress expression of Akt1 and Ak2 protein in both. T98G and SF767 glioma cells. […] After 72 hours, protein lysates were collected and analyzed by Western blotting for Akt1, Akt2 and α-tubulin. […] Cells with condensed, fragmented chromatin were manually scored as apoptotic cells. At least 10 fields (total of 1000 cells) were evaluated and data reported as apoptotic cells/total cells×100. […]
(§5) In FIGS. 18 and 19, TWEAK-induced BAD phosphorylation on serine 136 is dependent upon Akt2 function. […] Cellular lysates were collected and analyzed for phosphorylated BAD Ser-136 and total BAD by ELISA. […] After 72 hours protein lysates were collected and analyzed by Western blotting for BAD and α-tubulin. […] Cells with condensed, fragmented chromatin were manually scored as apoptotic cells. At least 10 fields (total of 1000 cells) were evaluated and data reported as apoptotic cells/total cells×100. […]

[3] = test system: BAD (Ser 136) phosphorylation; assay: PhosphoBAD (Ser 136) sandwich ELISA; design: species or system Human; details: cell-based ELISA; glioma cells
Procedure: Phosphorylation levels of BAD (Ser 136) were determined using a cell-based ELISA. Glioma cells were transfected with siRNA oligonucleotides against AKT1, AKT2, or non-mammalian GL2 luciferase control siRNA and incubated overnight. The cells were cultured overnight in DMEM with 0.5% FBS prior to TWEAK or control PBS addition in DMEM with 0.1% BSA for 15 min. Total cellular lysates were collected according to manufacturer's instructions utilizing the PathScan Sandwich ELISA kit (Cell Signaling). Each sample (100 μg total protein) was diluted 1:1 in sample buffer for a final volume of 200 μL prior to addition to the designated microstrip wells previously coated by the manufacturer with a BAD rabbit monoclonal capture antibody. The microstrips were then sealed and incubated overnight at 4° C. on a plate shaker. […] Stop solution was omitted and absorbance read at 600 nm (See Reference 29).
as §5

B1: TWEAK: recombinant TWEAK, TNF superfamily ligand of the Fn14 receptor, used at 100 ng/ml (protein)
chain: SAPKGRKTRARRAIAAHYEVHPRPGQDGAQAGVDGTVSGWEEARINSSSPLRYNRQIGEFIVTRAGLYYLYCQVHFDEGKAVYLKLDLLVDGVLALRCLEEFSATAASSLGPQLRLCQVSGLLALRPGSSLRIRTLPWAHLKAAPFLTYFGLFQVH
- Akt-Ser473 phosphorylation after TWEAK treatment (immunoblot of whole cellular lysates) ([1]; TWEAK 100 ng/ml, T98G and SF767 glioma cells): induction of Akt-Ser473 phosphorylation
- duration of TWEAK treatment after which Akt-Ser473 phosphorylation diminished ([1]; TWEAK treatment, T98G and SF767): more than 1 hour
- time after which phosphorylation of Akt-Ser473 was detected ([1]; TWEAK treatment, both T98G and SF767 cell lines): 5 min
- induction of phosphorylation of Akt1 following TWEAK treatment (Akt1): two-fold induction
- induction of phosphorylation of Akt2 following TWEAK treatment (Akt2): two-fold induction
- effect of TWEAK pretreatment on apoptosis by cytotoxic or chemotherapeutic agents in cells with BAD expression suppressed ([2]; BAD siRNA transfected glioma cells): still protected glioma cells from apoptosis
- effect of TWEAK pretreatment on TMZ induced cell death ([2]; TWEAK 100 ng/ml 2 hours before TMZ 200 μM): suppressed TMZ induced cell death
- effect of TWEAK pretreatment on cytotoxic therapy-induced apoptosis ([2]; TWEAK 100 ng/ml 2 hours before TRAIL or camptothecin, control siRNA cells): abrogated cytotoxic therapy-induced apoptosis
- amount of phosphorylated BAD-Ser136 upon TWEAK stimulation [3]: increased approximately two-fold
- amount of total BAD upon TWEAK stimulation [3]: did not change significantly
